The values below come from the supplement of paper PMC9112550, “Optimization of the antimicrobial peptide Bac7 by deep mutational scanning” (BMC Biology, 2022).

The series deals with Escherichia coli TOP10. Briefly: shrunken log2 fold change of peptide-encoding DNA abundance (4.5 h post-induction vs induction); higher = less antimicrobial activity (less host growth inhibition). The note with it: time post-induction: 4.5 h; library: site-saturation at positions 5, 18, 19, 20.
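Note: peptides expressed intracellularly from a pBAD plasmid library in pooled LB shake-flask culture, induced with 0.3% L-arabinose, DNA abundance read by NGS, three biological replicates, DESeq2 with apeglm shrinkage.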

As to RRIRDRPPRLPRPRPRPIPGPRP, the “shrunken log2 fold change” value turned out to be 0.171.

Regarding RRIRSRPPRLPRPRPRPSVWPRP, the “shrunken log2 fold change” value worked out at 0.0903.

RRIRGRPPRLPRPRPRPNPGPRP: the “shrunken log2 fold change” value turned out to be 0.158.

As to RRIRTRPPRLPRPRPRPQHTPRP, the “shrunken log2 fold change” value is -0.733.

As to RRIRIRPPRLPRPRPRPLLPPRP, the “shrunken log2 fold change” value is -0.0454.

Regarding RRIRIRPPRLPRPRPRPNHKPRP, the “shrunken log2 fold change” value is -0.857.

For RRIRHRPPRLPRPRPRPIFAPRP, the “shrunken log2 fold change” value turned out to be 0.158.

For the sequence RRIRDRPPRLPRPRPRPEDCPRP, the “shrunken log2 fold change” value was -0.0123.

Turning to RRIRLRPPRLPRPRPRPFQEPRP, the “shrunken log2 fold change” value is -0.274.

RRIRYRPPRLPRPRPRPLELPRP: the “shrunken log2 fold change” value was 0.0293.

For the sequence RRIRMRPPRLPRPRPRPCDPPRP, the “shrunken log2 fold change” value is -0.0166.

For the sequence RRIRGRPPRLPRPRPRPWKFPRP, the “shrunken log2 fold change” value is -0.211.

In the case of RRIRFRPPRLPRPRPRPVQMPRP, the “shrunken log2 fold change” value came out at 0.189.

Regarding RRIRGRPPRLPRPRPRPWMVPRP, the “shrunken log2 fold change” value is 0.213.

Consider RRIRCRPPRLPRPRPRPTNRPRP, for which the “shrunken log2 fold change” value is -0.356.

Turning to RRIRYRPPRLPRPRPRPQLGPRP, the “shrunken log2 fold change” value is -0.238.

For RRIRQRPPRLPRPRPRPQSIPRP, the “shrunken log2 fold change” value is -0.0322.

RRIRRRPPRLPRPRPRPIFPPRP: the “shrunken log2 fold change” value is 0.69.

For the sequence RRIRPRPPRLPRPRPRPSLPPRP, the “shrunken log2 fold change” value is -0.187.

Regarding RRIRSRPPRLPRPRPRPSKAPRP, the “shrunken log2 fold change” value is -0.0678.

For RRIRIRPPRLPRPRPRPADQPRP, the “shrunken log2 fold change” value was determined as 0.0357.

Regarding RRIRARPPRLPRPRPRPNFPPRP, the “shrunken log2 fold change” value is -0.0362.

In the case of RRIRWRPPRLPRPRPRPMRCPRP, the “shrunken log2 fold change” value is 0.353.

With RRIRERPPRLPRPRPRPKKRPRP, the “shrunken log2 fold change” value amounted to 0.0479.

Consider RRIRVRPPRLPRPRPRPQAGPRP, for which the “shrunken log2 fold change” value stood at 0.0465.

As for RRIRGRPPRLPRPRPRPGTNPRP, the “shrunken log2 fold change” value came to 0.133.

As for RRIRHRPPRLPRPRPRPVEDPRP, the “shrunken log2 fold change” value is -0.0354.

As for RRIRFRPPRLPRPRPRPHVLPRP, the “shrunken log2 fold change” value is -0.286.

Take RRIRTRPPRLPRPRPRPPKRPRP: the “shrunken log2 fold change” value stood at 0.302.

As to RRIRRRPPRLPRPRPRPNPVPRP, the “shrunken log2 fold change” value is 0.123.

In the case of RRIRMRPPRLPRPRPRPRGWPRP, the “shrunken log2 fold change” value worked out at 1.34.

With RRIRCRPPRLPRPRPRPIYCPRP, the “shrunken log2 fold change” value was -0.14.

For RRIRDRPPRLPRPRPRPNSVPRP, the “shrunken log2 fold change” value is -0.0426.

For the sequence RRIRHRPPRLPRPRPRPYQMPRP, the “shrunken log2 fold change” value was -0.113.

Regarding RRIRVRPPRLPRPRPRPFFAPRP, the “shrunken log2 fold change” value amounted to 0.238.

In the case of RRIRLRPPRLPRPRPRPNEEPRP, the “shrunken log2 fold change” value came to 0.00826.

On to RRIRYRPPRLPRPRPRPNLKPRP, for which the “shrunken log2 fold change” value is -0.732.

As to RRIRKRPPRLPRPRPRPWRMPRP, the “shrunken log2 fold change” value was 0.0773.

RRIRVRPPRLPRPRPRPTEMPRP: the “shrunken log2 fold change” value was -0.0269.

In the case of RRIRSRPPRLPRPRPRPQQYPRP, the “shrunken log2 fold change” value was -0.525.

In the case of RRIRNRPPRLPRPRPRPIECPRP, the “shrunken log2 fold change” value is 0.0138.

As to RRIRTRPPRLPRPRPRPLNIPRP, the “shrunken log2 fold change” value is -0.36.

Take RRIRGRPPRLPRPRPRPSHFPRP: the “shrunken log2 fold change” value was -0.621.

As for RRIRLRPPRLPRPRPRPIEMPRP, the “shrunken log2 fold change” value is -0.0708.

Turning to RRIRARPPRLPRPRPRPMKDPRP, the “shrunken log2 fold change” value turned out to be 0.0565.

In the case of RRIRFRPPRLPRPRPRPYQYPRP, the “shrunken log2 fold change” value came to 0.0631.

Turning to RRIRFRPPRLPRPRPRPEFAPRP, the “shrunken log2 fold change” value was -0.175.

With RRIRFRPPRLPRPRPRPMLMPRP, the “shrunken log2 fold change” value was -0.0715.

Take RRIRCRPPRLPRPRPRPCTGPRP: the “shrunken log2 fold change” value was -0.307.

Regarding RRIRIRPPRLPRPRPRPYGQPRP, the “shrunken log2 fold change” value is -0.284.

As to RRIRLRPPRLPRPRPRPGNDPRP, the “shrunken log2 fold change” value is -0.0526.

Turning to RRIRMRPPRLPRPRPRPLQFPRP, the “shrunken log2 fold change” value was 0.388.

For the sequence RRIRARPPRLPRPRPRPAMGPRP, the “shrunken log2 fold change” value was 0.505.

In the case of RRIRARPPRLPRPRPRPNLCPRP, the “shrunken log2 fold change” value came to 0.0317.

Turning to RRIRLRPPRLPRPRPRPLIYPRP, the “shrunken log2 fold change” value was -0.832.

Take RRIRARPPRLPRPRPRPDEIPRP: the “shrunken log2 fold change” value came out at 0.357.

RRIRCRPPRLPRPRPRPCIYPRP: the “shrunken log2 fold change” value was -0.253.

Regarding RRIRKRPPRLPRPRPRPDYIPRP, the “shrunken log2 fold change” value was -0.0117.

Consider RRIRSRPPRLPRPRPRPKIFPRP, for which the “shrunken log2 fold change” value was -0.0746.

For RRIRWRPPRLPRPRPRPLCGPRP, the “shrunken log2 fold change” value came out at 1.71.

Regarding RRIRWRPPRLPRPRPRPWIQPRP, the “shrunken log2 fold change” value stood at 0.0861.

In the case of RRIRHRPPRLPRPRPRPFFCPRP, the “shrunken log2 fold change” value was -0.16.

In the case of RRIRERPPRLPRPRPRPVSFPRP, the “shrunken log2 fold change” value is -0.0647.

Consider RRIRARPPRLPRPRPRPHLCPRP, for which the “shrunken log2 fold change” value turned out to be 0.202.

In the case of RRIRQRPPRLPRPRPRPYGQPRP, the “shrunken log2 fold change” value is -0.239.

Consider RRIRARPPRLPRPRPRPCCGPRP, for which the “shrunken log2 fold change” value worked out at 0.525.

Turning to RRIRCRPPRLPRPRPRPQYIPRP, the “shrunken log2 fold change” value is -0.738.

For the sequence RRIRIRPPRLPRPRPRPGWLPRP, the “shrunken log2 fold change” value is -0.0831.

Turning to RRIRTRPPRLPRPRPRPNCKPRP, the “shrunken log2 fold change” value is -0.218.

Turning to RRIRDRPPRLPRPRPRPKYIPRP, the “shrunken log2 fold change” value is -0.516.

Take RRIRYRPPRLPRPRPRPHAMPRP: the “shrunken log2 fold change” value was -0.221.

With RRIRNRPPRLPRPRPRPILQPRP, the “shrunken log2 fold change” value was -0.387.

As to RRIRTRPPRLPRPRPRPMISPRP, the “shrunken log2 fold change” value was -0.0443.

On to RRIRSRPPRLPRPRPRPAPLPRP, for which the “shrunken log2 fold change” value was 0.163.

RRIRRRPPRLPRPRPRPDMPPRP: the “shrunken log2 fold change” value is -0.0169.

For the sequence RRIRRRPPRLPRPRPRPVHTPRP, the “shrunken log2 fold change” value is 0.0317.

Take RRIRWRPPRLPRPRPRPHHIPRP: the “shrunken log2 fold change” value was -0.612.

As to RRIRWRPPRLPRPRPRPVNMPRP, the “shrunken log2 fold change” value is -0.101.

Turning to RRIRTRPPRLPRPRPRPTADPRP, the “shrunken log2 fold change” value stood at 0.351.

On to RRIRTRPPRLPRPRPRPWVTPRP, for which the “shrunken log2 fold change” value was -0.117.

For the sequence RRIRRRPPRLPRPRPRPLYIPRP, the “shrunken log2 fold change” value is -0.466.

In the case of RRIRHRPPRLPRPRPRPEMEPRP, the “shrunken log2 fold change” value is -0.108.

Take RRIRLRPPRLPRPRPRPDWYPRP: the “shrunken log2 fold change” value is -0.464.

With RRIRFRPPRLPRPRPRPMSHPRP, the “shrunken log2 fold change” value came to 0.00661.

For RRIRPRPPRLPRPRPRPWAFPRP, the “shrunken log2 fold change” value stood at 0.144.

Turning to RRIRDRPPRLPRPRPRPEMKPRP, the “shrunken log2 fold change” value was found to be 0.0494.

Regarding RRIRNRPPRLPRPRPRPEQVPRP, the “shrunken log2 fold change” value amounted to 0.0249.

In the case of RRIRMRPPRLPRPRPRPDLPPRP, the “shrunken log2 fold change” value was -0.0325.

As for RRIRVRPPRLPRPRPRPPYSPRP, the “shrunken log2 fold change” value is -0.384.

As for RRIRVRPPRLPRPRPRPWWIPRP, the “shrunken log2 fold change” value was -0.202.

Turning to RRIRFRPPRLPRPRPRPCKSPRP, the “shrunken log2 fold change” value was -0.0582.

For RRIRNRPPRLPRPRPRPMVTPRP, the “shrunken log2 fold change” value is -0.157.

As for RRIRWRPPRLPRPRPRPQRMPRP, the “shrunken log2 fold change” value turned out to be 0.0753.

On to RRIRMRPPRLPRPRPRPEPDPRP, for which the “shrunken log2 fold change” value turned out to be 1.12.

In the case of RRIRCRPPRLPRPRPRPWWTPRP, the “shrunken log2 fold change” value was -0.383.

Turning to RRIRKRPPRLPRPRPRPCSRPRP, the “shrunken log2 fold change” value amounted to 0.015.

For the sequence RRIRDRPPRLPRPRPRPFIWPRP, the “shrunken log2 fold change” value came to 0.293.

Regarding RRIRGRPPRLPRPRPRPYEMPRP, the “shrunken log2 fold change” value was 0.0132.

As to RRIRARPPRLPRPRPRPCTVPRP, the “shrunken log2 fold change” value is -0.26.

In the case of RRIRVRPPRLPRPRPRPKKLPRP, the “shrunken log2 fold change” value is -0.0765.

With RRIRYRPPRLPRPRPRPHKHPRP, the “shrunken log2 fold change” value was -0.91.

As for RRIRNRPPRLPRPRPRPQTSPRP, the “shrunken log2 fold change” value was -0.346.

For the sequence RRIRMRPPRLPRPRPRPHMSPRP, the “shrunken log2 fold change” value is -0.123.

In the case of RRIRYRPPRLPRPRPRPNTGPRP, the “shrunken log2 fold change” value was -0.195.

Turning to RRIRHRPPRLPRPRPRPPHIPRP, the “shrunken log2 fold change” value is -0.287.

With RRIRIRPPRLPRPRPRPYCNPRP, the “shrunken log2 fold change” value is -0.154.

Turning to RRIRFRPPRLPRPRPRPRNQPRP, the “shrunken log2 fold change” value was -0.114.

RRIRPRPPRLPRPRPRPSICPRP: the “shrunken log2 fold change” value was -0.718.

With RRIRVRPPRLPRPRPRPASIPRP, the “shrunken log2 fold change” value was -0.437.

As to RRIRCRPPRLPRPRPRPWQSPRP, the “shrunken log2 fold change” value was -0.127.

With RRIRTRPPRLPRPRPRPWYTPRP, the “shrunken log2 fold change” value is -0.555.

On to RRIRERPPRLPRPRPRPKEYPRP, for which the “shrunken log2 fold change” value is -0.0204.

Turning to RRIRMRPPRLPRPRPRPDTPPRP, the “shrunken log2 fold change” value worked out at 0.872.

On to RRIRKRPPRLPRPRPRPVANPRP, for which the “shrunken log2 fold change” value came out at 0.0525.

For RRIRVRPPRLPRPRPRPQMIPRP, the “shrunken log2 fold change” value is -0.425.

In the case of RRIRERPPRLPRPRPRPNKDPRP, the “shrunken log2 fold change” value was -0.321.

RRIRPRPPRLPRPRPRPYEYPRP: the “shrunken log2 fold change” value is -0.314.

For RRIRTRPPRLPRPRPRPNALPRP, the “shrunken log2 fold change” value is -0.0225.

For RRIRRRPPRLPRPRPRPNQLPRP, the “shrunken log2 fold change” value was -0.178.

RRIRKRPPRLPRPRPRPFYQPRP: the “shrunken log2 fold change” value was -0.101.

RRIRGRPPRLPRPRPRPWNKPRP: the “shrunken log2 fold change” value is -0.306.

For RRIRHRPPRLPRPRPRPDNFPRP, the “shrunken log2 fold change” value was -0.0184.

RRIRGRPPRLPRPRPRPFYFPRP: the “shrunken log2 fold change” value is 0.219.

With RRIRVRPPRLPRPRPRPPMGPRP, the “shrunken log2 fold change” value amounted to 0.254.

As for RRIRHRPPRLPRPRPRPPQMPRP, the “shrunken log2 fold change” value worked out at 0.149.
